Here are results for two variants from IntAct's records for PubMed 11854419.

First the molecules themselves.
B1: COP9 signalosome complex subunit 1 (Arabidopsis thaliana (Mouse-ear cress)), P45432 (parent)
chain: MERDEEASGPMMEMCTNGGEETSNRRPIISGEPLDIEAYAALYKGRTKIMRLLFIANHCGGNHALQFDALRMAYDEIKKGENTQLFREVVNKIGNRLGEKYGMDLAWCEAVDRRAEQKKVKLENELSSYRTNLIKESIRMGYNDFGDFYYACGMLGDAFKNYIRTRDYCTTTKHIIHMCMNAILVSIEMGQFTHVTSYVNKAEQNPETLEPMVNAKLRCASGLAHLELKKYKLAARKFLDVNPELGNSYNEVIAPQDIATYGGLCALASFDRSELKQKVIDNINFRNFLELVPDVRELINDFYSSRYASCLEYLASLKSNLLLDIHLHDHVDTLYDQIRKKALIQYTLPFVSVDLSRMADAFKTSVSGLEKELEALITDNQIQARIDSHNKILYARHADQRNATFQKVLQMGNEFDRDVRAMLLRANLLKHEYHARSARKL
partner: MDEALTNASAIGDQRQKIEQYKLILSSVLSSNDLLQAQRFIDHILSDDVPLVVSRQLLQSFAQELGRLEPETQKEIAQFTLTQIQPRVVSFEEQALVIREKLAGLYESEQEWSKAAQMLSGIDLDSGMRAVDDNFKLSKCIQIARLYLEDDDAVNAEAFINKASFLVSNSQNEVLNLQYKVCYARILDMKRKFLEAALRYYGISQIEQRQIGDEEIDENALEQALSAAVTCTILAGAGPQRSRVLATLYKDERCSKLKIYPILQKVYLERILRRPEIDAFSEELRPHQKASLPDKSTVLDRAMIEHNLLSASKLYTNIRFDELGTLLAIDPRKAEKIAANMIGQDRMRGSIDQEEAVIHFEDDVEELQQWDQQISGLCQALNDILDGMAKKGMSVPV
B2: COP9 signalosome complex subunit 1 (Arabidopsis thaliana (Mouse-ear cress)), P45432 (parent)
chain: B1 chain
partner: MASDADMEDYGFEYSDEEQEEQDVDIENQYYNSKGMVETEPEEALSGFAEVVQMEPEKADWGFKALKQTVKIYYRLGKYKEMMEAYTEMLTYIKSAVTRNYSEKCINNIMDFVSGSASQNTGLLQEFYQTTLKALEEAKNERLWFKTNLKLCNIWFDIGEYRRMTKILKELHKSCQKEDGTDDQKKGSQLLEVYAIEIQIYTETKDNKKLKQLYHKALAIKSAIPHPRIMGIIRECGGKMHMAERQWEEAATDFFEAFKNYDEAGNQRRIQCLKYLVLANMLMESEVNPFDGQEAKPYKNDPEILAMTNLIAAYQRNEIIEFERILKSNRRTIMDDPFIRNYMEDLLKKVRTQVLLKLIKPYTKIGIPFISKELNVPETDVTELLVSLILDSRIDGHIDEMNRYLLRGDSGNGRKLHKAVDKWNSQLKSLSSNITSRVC

The variants in the first assay derive from B1. Conditions: with csn4_arath CSN4, Q8L5U0.
With MERDEEASGPMMEMCTNGGEETSNRRPIISGEPLDIEAYAALYKGRTKIMRLLFIANHCGGNHALQFDALRMAYDEIKKGENTQLFREVVNKIGNRLGEKYGMDLAWCEAVDRRAEQKKVKLENELSSYRTNLIKESIRMGYNDFGDFYYACGMLGDAFKNYIRTRDYCTTTKHIIHMCMNAILVSIEMGQFTHVTSYVNKAEQNPETLEPMVNAKLRCASRLAHLELKKYKLAARKFLDVNPELGNSYNEVIAPQDIATYGGLCALASFDRSELKQKVIDNINFRNFLELVPDVRELINDFYSSRYASCLEYLASLKSNLLLDIHLHDHVDTLYDQIRKKALIQYTLPFVSVDLSRMADAFKTSVSGLEKELEALITDNQIQARIDSHNKILYARHADQRNATFQKVLQMGNEFDRDVRAMLLRANLLKHEYHARSARKL [G222R], the “effect of a mutation on the interaction” value is “disrupting interaction”.

A further assay covers variants of B2. The note with it: with csn2_arath CSN2, Q8W207.
Regarding MERDEEASGPMMEMCTNGGEETSNRRPIISGEPLDIEAYAALYKGRTKIMRLLFIANHCGGNHALQFDALRMAYDEIKKGENTQLFREVVNKIGNRLGEKYGMDLAWCEAVDRRAEQKKVKLENELSSYRTNLIKESIRMGYNDFGDFYYACGMLGDAFKNYIRTRDYCTTTKHIIHMCMNAILVSIEMGQFTHVTSYVNKAEQNPETLEPMVNAKLRCASRLAHLELKKYKLAARKFLDVNPELGNSYNEVIAPQDIATYGGLCALASFDRSELKQKVIDNINFRNFLELVPDVRELINDFYSSRYASCLEYLASLKSNLLLDIHLHDHVDTLYDQIRKKALIQYTLPFVSVDLSRMADAFKTSVSGLEKELEALITDNQIQARIDSHNKILYARHADQRNATFQKVLQMGNEFDRDVRAMLLRANLLKHEYHARSARKL [G222R], the “effect of a mutation on the interaction” value is “disrupting interaction”.
